# Results taken from the RNAGym collection of RNA variant scans (doi:10.7554/elife.80360).
# B1: Hairpin Ribozyme (parent)
# chain: GUCCUCUUUCACGUGCGCGUGAAAGAGAGAAGUGAACCAGAGAAACACACGUUGUGGUAUAUUACCUGGUA
# Variants of: B1
# Experiment: self-cleavage, relative activity (ratio to wild type); higher = more cleavage; co-transcriptional
row,Variant,self-cleavage
1,U9C C48A,0.0859
2,U8A G54U,0.524
3,U8A A61U,0.191
4,U8A A71C,1.23
5,U9A U58C,0.72
6,U9A G13U,0.479
7,U8C C65U,0.166
8,U8G U9G,0.82
9,U8G U9C,0.595
10,U7G U63C,0.143
11,U8A A44C,0.213
12,U8A A44G,0.173
13,U8G A49C,0.108
14,U8A U33C,0.137
15,U8A C66U,0.238
16,U8A C66A,0.128
17,U8A C66G,0.101
18,U9C,0.819
19,U9A,0.691
20,U9A G40U,0.119
21,U9A G40A,0.262
22,U8A C12G,0.552
23,U9A G15C,0.727
24,U9C A23U,0.528

row,Variant,self-cleavage
1,U8A U20G,0.711
2,U8G G57U,0.19
3,U9C A43U,0.298
4,U8A A41C,0.82
5,U8A A41U,0.843
6,U8A A64U,0.151
7,U8A A64C,0.181
8,U8G A35U,0.673
9,U9A G25U,0.285
10,U8G A23U,0.738
11,U8C A71C,1.11
12,U8C A71U,0.569
13,U8C A39C,0.343
14,U8A A22U,0.891
15,U8C A36U,0.393
16,U8C A36C,0.671
17,U9C A22U,0.799
18,U9C A36U,0.444
19,U9C G57A,0.167
20,U8C G27U,0.158
21,U9A C38G,0.145
22,U7G U53C,0.84
23,U9C G29A,0.118
24,U8G U60G,0.51

row,Variant,self-cleavage
1,U9A U67A,0.147
2,U9A U67G,0.152
3,U8C A22U,0.344
4,U9C A45G,0.0278
5,U9C A41C,0.837
6,U8G G25U,0.2
7,U8G A71U,0.588
8,U8G A71G,0.993
9,U8G G13A,0.618
10,U8G G13C,0.519
11,U8G G69A,0.282
12,U8G G69C,0.323
13,U9A A23G,0.559
14,U7G U62C,0.0811
15,U7G U62A,0.101
16,U8G G27U,0.289
17,U9C C50A,0.215
18,U8G A39C,0.406
19,U8G A39U,0.288
20,U8G A22C,0.556
21,U8C G13C,0.834
22,U9A A49G,0.395
23,U8G U63A,0.245
24,U9A U60A,0.483

row,Variant,self-cleavage
1,U9A U62C,0.249
2,U9A A64U,0.131
3,U9C A35U,0.708
4,U9C A44C,0.183
5,U8A A31G,0.448
6,U8A A31U,0.135
7,U8G C12G,0.146
8,U9C A59G,0.0975
9,U8A G40A,0.235
10,U8G G32A,0.0907
11,U9A C48U,0.134
12,U9A C48G,0.127
13,U8A U14G,0.401
14,U8A U14A,0.642
15,U8C G56A,0.153
16,U9C G68A,0.344
17,U9A A61C,0.144
18,U8A U70C,0.816
19,U8A U70G,0.585
20,U9C A30U,0.12
21,U8C U67A,0.161
22,U8G A45U,0.118
23,U8C C46G,0.188
24,U8C U55C,0.132

row,Variant,self-cleavage
1,U9A G68U,0.159
2,U9A G68C,0.165
3,U9C C46U,0.0512
4,U9A G29A,0.0709
5,U9A G29C,0.154
6,U9A G29U,0.144
7,U8C G40C,0.0998
8,U8A A26C,0.334
9,U8A A26U,0.421
10,U8C G34C,1.16
11,U8A A59G,0.215
12,U9C C38A,0.225
13,U9C C38U,0.338
14,U7G U33C,0.113
15,U7G U33A,0.131
16,U8G C50A,0.227
17,U8G C50G,0.125
18,U8C U52G,0.709
19,U8C U52C,0.405
20,U8G U20C,0.425
21,U8C A26C,0.316
22,U8C A26G,0.544
23,U9A U63C,0.205
24,U9A U63G,0.151

row,Variant,self-cleavage
1,U9A U63A,0.212
2,U9C G15A,0.76
3,U9C G15C,0.977
4,U8A G21A,0.618
5,U9A A43U,0.105
6,U9C C66A,0.248
7,U9C C66U,0.513
8,U8C G69C,0.164
9,U7G G56U,0.0768
10,U9A A28U,0.441
11,U9C C16U,1.02
12,U9C C16G,0.63
13,U7G U55G,0.215
14,U9A C12A,0.377
15,U9A C12G,0.512
16,U9A C66G,0.0453
17,U8C U58G,0.327
18,U8G G51C,0.665
19,U8A U55C,0.322
20,U8A U55G,0.268
21,U8A U55A,0.184
22,U8A A23C,0.712
23,U8A A23G,0.808
24,U8G A11C,0.512

row,Variant,self-cleavage
1,U8G A11U,0.67
2,U8G U52C,0.617
3,U9A A39G,0.201
4,U8A A30G,0.13
5,U8A U63G,0.117
6,U9A A30C,0.172
7,U9A A30G,0.148
8,U9C A24G,0.844
9,U9C A24C,0.657
10,U8C A24U,0.369
11,U9C G21U,0.695
12,U7G G69A,0.398
13,U7G G69U,0.166
14,U7G G69C,0.191
15,U9C G42C,0.264
16,U8A G27U,0.208
17,U8A A49C,0.165
18,U8A A49G,0.366
19,U8A A49U,0.148
20,U8A G68C,0.215
21,U8C U53A,0.674
22,U8C U53G,0.509
23,U8C G68A,0.186
24,U8C G68U,0.154

row,Variant,self-cleavage
1,U8C G54U,0.453
2,U8C G54A,0.378
3,U9A G34C,1.08
4,U9C A61G,0.348
5,U7G U14C,0.701
6,U7G U14A,0.666
7,U7G U14G,0.729
8,U8A G17U,0.79
9,U8C A23G,0.709
10,U9A C16A,0.626
11,U9A C16U,0.624
12,U8G G54A,0.456
13,U8G G54C,0.313
14,U9A G54A,0.392
15,U8A U53A,0.763
16,U8A U53G,0.59
17,U8G U67C,0.189
18,U8G U67G,0.242
19,U8G U67A,0.145
20,U9A G57C,0.185
21,U8A A11G,0.772
22,U8A A11U,0.619
23,U8G A59C,0.136
24,U9C G69A,0.357

row,Variant,self-cleavage
1,U9C G69C,0.136
2,U8C G15A,0.743
3,U8C U70A,0.631
4,U8C U70C,0.651
5,U8G G68C,0.183
6,U8G A41C,0.801
7,U8C U62C,0.201
8,U8C U62A,0.192
9,U8C U62G,0.144
10,U8A C50G,0.21
11,U9C A11C,0.592
12,U8C A47G,0.147
13,U9C A28G,1.33
14,U9C A28U,0.571
15,U8C C48G,0.155
16,U8C C48U,0.272
17,U8C A11G,0.458
18,U8C U14A,0.51
19,U8C U14C,0.802
20,U8C A49C,0.216
21,U8G G17A,0.648
22,U9C G13C,0.447
23,U9C G13A,0.531
24,U8A A47G,0.187

row,Variant,self-cleavage
1,U8G G19U,0.332
2,U8G G19A,0.533
3,U8C U63C,0.132
4,U8A U62G,0.123
5,U9C C18U,1.02
6,U9C C18A,0.84
7,U7G G42C,0.316
8,U7G U9A,0.68
9,U7G U9G,0.599
10,U8G U58A,0.665
11,U8G U58G,0.635
12,U8C G57C,0.172
13,U8C G32U,0.0859
14,U8C G19U,0.582
15,U8G U70A,0.715
16,U8G G15U,0.656
17,U9C A49U,0.0445
18,U9A A31G,0.313
19,U8G C65G,0.275
20,U8C C38A,0.215
21,U9A A36U,0.283
22,U8C A35U,0.679
23,U8C A35C,0.876
24,U9A A11C,0.478

row,Variant,self-cleavage
1,U9A A11U,0.541
2,U9A A11G,0.473
3,U9A U20C,0.773
4,U8G U33C,0.117
5,U8G U33A,0.136
6,U8C C12A,0.164
7,U8C C12U,0.566
8,U8A G15U,0.888
9,U9A G27C,0.239
10,U9A G27U,0.326
11,U9A A24G,0.461
12,U9A C50U,0.22
13,U9C G51U,0.463
14,U9C C12G,0.502
15,U9C C12A,0.789
16,U9A G69A,0.296
17,U9A G69C,0.274
18,U9A G69U,0.245
19,U9C A39U,0.411
20,U9C A39C,0.366
21,U9C A39G,0.283
22,U8A G29A,0.183
23,U7G U60C,1.12
24,U7G G51A,0.891

row,Variant,self-cleavage
1,U7G G57U,0.175
2,U9C G27U,0.246
3,U9C G27A,0.4
4,U9C A31G,0.592
5,U9C A31C,0.184
6,U9C A31U,0.153
7,U9A A45C,0.154
8,U9A A45U,0.152
9,U9C C37A,0.355
10,U9A G56A,0.158
11,U7G U20C,0.798
12,U8C A28C,0.691
13,U8C A28U,0.693
14,U7G U52G,0.779
15,U9A C18G,0.617
16,U9A C18A,0.855
17,U8A A28G,0.684
18,U9C G56A,0.171
19,U9A G32U,0.135
20,U9A G32C,0.178
21,U8G A47G,0.0909
22,U8A C48A,0.111
23,U8A C48U,0.117
24,U8A C48G,0.107

row,Variant,self-cleavage
1,U8A C10U,0.643
2,U8A C10G,0.44
3,U8C C10A,0.363
4,U7G U70G,0.917
5,U7G U70C,0.838
6,U8G G56C,0.0783
7,U8G G56A,0.11
8,U8C A45C,0.065
9,U8C A45U,0.257
10,U8A A43G,0.13
11,U9A G42A,0.132
12,U9A G19U,0.558
13,U8G A36G,0.76
14,U9C G40U,0.169
15,U9C G40C,0.136
16,U9A U33C,0.177
17,U9A U33A,0.0178
18,U9A U33G,0.105
19,U8A A36U,0.473
20,U8A A36G,0.714
21,U9A A71C,1.01
22,U8C U33A,0.216
23,U8C G42C,0.187
24,U8C U20C,0.184

row,Variant,self-cleavage
1,U7G U67C,0.217
2,U7G U67A,0.238
3,U8G C37A,0.218
4,U9A U52C,0.6
5,U9A U52A,0.877
6,U8C C37A,0.214
7,U8A U67C,0.186
8,U8A U67A,0.196
9,U8G G40U,0.132
10,U8G C10A,0.725
11,U8G C10U,0.654
12,U9C A47C,0.149
13,U8G A30U,0.186
14,U8C C18A,0.787
15,U8C C18U,0.779
16,U9C G34C,1.3
17,U9C G34A,0.812
18,U8G U53C,0.954
19,U8G U53A,0.567
20,U8A U52A,0.658
21,U8A U52G,0.518
22,U8G A31C,0.13
